* marks the point of attachment. Biotin = O=C1N[C@H]2[C@H](CS[C@H]2CCCCC(=O)*)N1
T1: E2 protein of the TH strain (genotype 1b) on TH/JFH-1 HCVcc (Hepatitis C virus TH strain (genotype …))
T1 chain: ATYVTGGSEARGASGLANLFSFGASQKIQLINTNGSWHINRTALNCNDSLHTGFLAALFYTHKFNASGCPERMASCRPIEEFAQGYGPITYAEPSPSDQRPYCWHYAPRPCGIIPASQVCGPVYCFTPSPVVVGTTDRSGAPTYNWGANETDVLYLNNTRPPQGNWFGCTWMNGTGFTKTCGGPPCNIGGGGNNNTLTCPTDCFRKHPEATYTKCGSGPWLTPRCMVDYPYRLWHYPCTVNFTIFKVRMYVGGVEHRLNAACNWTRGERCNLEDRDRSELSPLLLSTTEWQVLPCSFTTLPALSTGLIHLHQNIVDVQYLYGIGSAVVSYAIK

T2: QLINTNGSWHIN (SEQ ID NO: 37), TH E2 protein-derived peptide (Hepatitis C virus TH strain (genotype …, SMILES …))
T2 construct: also called linear peptide of 12 amino acid residues
T2 peptide: Biotin-QLINTNGSWHING-NH2

T3: denatured TH E2-Fc protein (Hepatitis C virus TH strain (genotype …))
T3 construct: also called denatured E2 protein; not shown: Fc domain of human immunoglobulin (human IgG) from vector CDM-mIL7R-Ig
T3 chain: T1 chain

B1: e2d066 IgG (antibody, V domains shown)
VH: QVQLVQSGSDVKKPGSSVRVSCKASGGSFNSYAVNWVRQAPGQGLEWMGRIMPLVGLPEYAERFQERVTFTADKSTRTAYMDLTSLSSDDTAFYFCAVGVMKIFGEVPLNLDFWGQGTLVTVSS
VL: QAVLTQPSSVSGSPGQSITISCTGTSNDVGSYRYVSWFQQHPGKAPKLMIYDVNKRPSGVSSRFSGSKSGNTASLTISGLQAEDEANYYCSSYTRSSSLAFGGGTKLTVLS
notes: Human IgG1 made in CHO-K1 cells; also called biotinylated e2d066 IgG; ed2066 IgG
B2: e2d081 IgG (antibody, V domains shown)
VH: B1 VH
VL: QSVLTQPPSVSAAPGQKVTISCSGTSSNIGDNYVSWYQHLPGSAPKLLIYDNNKRPSGIPDRFSGSKSGTSATLGITGLQTGDEADFYCGTWDSSLSSVVFGGGTKLTVLG
notes: Human IgG1 made in CHO-K1 cells; also called eE2d081 IgG
B3: e2d073 IgG (antibody, V domains shown)
VH: QVQLVQSGAEVKKPGSSVKVSCKASGASFNSFAIDWVRQAPGQGLEWMGRIIPIADVSDYAQKFQGRVTITADKSTRTAYMELTTLRSDDTAVYYCATSPMLTFGGPNAFGAFDVWGQGTMVTVSS
VL: not shown
notes: Human IgG1 made in CHO-K1 cells

How the values were obtained:
[1] = target: E2 protein of the H77 strain (genotype 1a) on H77/JFH-1 HCVcc (Hepatitis C virus H77 strain (genotype …, UniProt P27958 384-746)); test: cell-based or functional assay
Chain of E2 protein of the H77 strain (genotype 1a) on H77/JFH-1 HCVcc (Hepatitis C virus H77 strain (P27958 384-746 limits assumed): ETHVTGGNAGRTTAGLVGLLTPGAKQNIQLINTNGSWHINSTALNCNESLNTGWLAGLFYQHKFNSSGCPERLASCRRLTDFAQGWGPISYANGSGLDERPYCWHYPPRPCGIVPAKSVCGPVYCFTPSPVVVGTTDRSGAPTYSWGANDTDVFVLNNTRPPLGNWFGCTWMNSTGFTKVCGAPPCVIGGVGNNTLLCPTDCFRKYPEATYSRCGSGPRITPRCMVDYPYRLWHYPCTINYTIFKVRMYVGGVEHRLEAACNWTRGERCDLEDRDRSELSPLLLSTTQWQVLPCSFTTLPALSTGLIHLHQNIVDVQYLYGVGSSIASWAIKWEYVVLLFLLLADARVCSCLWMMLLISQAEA

[2] = target: T1, E2 protein of the TH strain (genotype …); test: cell-based or functional assay
[3] = target: E2 protein of the S310 strain (genotype 3a) on S310/JFH-1 HCVcc (Hepatitis C virus S310 strain (genotype …)); test: cell-based or functional assay
[4] = target: E2 protein on J6/JFH-1 HCVcc-8W (J6/JFH-1 HCVcc after 8 rounds of subculture infection in the presence of the …); test: cell-based or functional assay
[5] = target: T2, QLINTNGSWHIN (SEQ ID NO: 37), TH E2 …; test: ELISA on biotinylated 12-mer peptides on streptavidin plates
[6] = target: T3, denatured TH E2-Fc protein; test: ELISA, biotinylated antibody on immobilized denatured TH E2-Fc, avidin-HRP

Binder | IC50 (µg/mL) of infection inhibiting activity against HCVcc (HCV core protein in Huh-7 cells) [1] [µg/mL] | IC50 (µg/mL) of infection inhibiting activity against HCVcc (HCV core protein in Huh-7 cells) [2] [µg/mL] | IC50 (µg/mL) of infection inhibiting activity against HCVcc (HCV core protein in Huh-7 cells) [3] [µg/mL] | IC50 (µg/mL), 50% infection inhibiting concentration (infectious titer, focus count on Huh-7 cells) [4] [µg/mL] | binding result [5] | binding result [6]
B1 | 3.3 | 0.11 | 1.03 | < 0.01 | no binding (tested: 1 µg/mL) | –
B2 | 0.66 | 0.05 | 0.5 | 0.67 | no binding (tested: 1 µg/mL) | –
B3 | > 30 | 0.25 | 10.4 | 59.4 | no binding (tested: 1 µg/mL) | no binding
